Source: publication PMC12694930, “An allantoin-inducible glyoxylate utilization pathway in Pseudomonas aeruginosa” (Microbiology, 2025)

Key:
[1] = biological target: Hyi (PA1501), putative hydroxypyruvate isomerase from Pseudomonas aeruginosa (P. aeruginosa); assay: AUC; analytical ultracentrifugation, sedimentation velocity (AUC-SV), of each purified protein alone
Gcl [2] = biological target: T1, Gcl (Pseudomonas aeruginosa, UniProt Q9I3L0); assay: GlxR-coupled NADH oxidation with added FAD; yellow protein ([…] nm); format: biochemical; details: 100 µM FAD roughly doubled activity; 37 °C
T1 construct: full-length ORF in pET-19m, N-terminal His6 tag cut with TEV protease, expressed in E. coli Rosetta, Ni-NTA
T1 sequence (Q9I3L0 1-591): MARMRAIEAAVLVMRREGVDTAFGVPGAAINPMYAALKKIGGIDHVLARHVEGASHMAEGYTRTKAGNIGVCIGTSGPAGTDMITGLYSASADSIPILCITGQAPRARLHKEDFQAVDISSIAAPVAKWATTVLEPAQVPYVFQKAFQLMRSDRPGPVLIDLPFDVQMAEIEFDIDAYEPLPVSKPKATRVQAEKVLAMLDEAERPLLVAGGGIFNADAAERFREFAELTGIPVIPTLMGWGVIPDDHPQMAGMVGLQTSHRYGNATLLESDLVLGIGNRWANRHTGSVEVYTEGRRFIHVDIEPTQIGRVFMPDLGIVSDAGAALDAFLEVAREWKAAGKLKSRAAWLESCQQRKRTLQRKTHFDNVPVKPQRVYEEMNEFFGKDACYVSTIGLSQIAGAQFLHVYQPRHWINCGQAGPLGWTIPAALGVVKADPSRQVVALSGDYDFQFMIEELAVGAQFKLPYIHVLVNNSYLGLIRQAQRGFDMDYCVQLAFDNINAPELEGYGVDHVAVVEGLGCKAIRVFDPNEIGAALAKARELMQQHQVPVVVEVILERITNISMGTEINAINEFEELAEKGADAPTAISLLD

Gcl [3] = biological target: T1, Gcl; assay: 1H-NMR, decrease of hydrated glyoxylate peak; format: biochemical; details: 50 mM sodium phosphate in D2O, 1 mM MgCl2, pD 7.0; 37 °C; 22 h; no Hyi
Hyi = biological target: T2, Hyi (Pseudomonas aeruginosa, UniProt Q9I3L1); assay: 1H-NMR, disappearance of hydroxypyruvate peaks; format: biochemical; details: 50 mM sodium phosphate in D2O, 1 mM MgCl2, pD 7.0; 37 °C; likely isomerization with H/D exchange, product peak not seen
T2 construct: gene PA1501; full-length ORF in pET-19m, N-terminal His6 tag (cleavage clearly told only for Gcl), expressed in E. coli Rosetta, Ni-NTA; dimer in solution
T2 sequence (Q9I3L1 1-260): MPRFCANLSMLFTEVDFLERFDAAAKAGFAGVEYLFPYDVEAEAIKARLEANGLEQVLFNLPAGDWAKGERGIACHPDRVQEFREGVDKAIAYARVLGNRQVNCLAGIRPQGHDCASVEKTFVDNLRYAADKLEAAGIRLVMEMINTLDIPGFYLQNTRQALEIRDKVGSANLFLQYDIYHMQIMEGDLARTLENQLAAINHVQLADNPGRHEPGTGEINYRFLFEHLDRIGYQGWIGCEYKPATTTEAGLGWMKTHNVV

purified protein [4] = substrate: O=C(O)C(=O)CO; assay: purified protein; format: biochemical, Pseudomonas aeruginosa; details: 0.2 mM NADH, 20 mM MOPS, pH 7.5, 37 °C, h = 1.6 ± 0.2, some TSA may be present by tautomerization, no Hyi
purified protein [5] = substrate: O=CC(O)C(=O)O; assay: purified protein; format: biochemical, Pseudomonas aeruginosa; details: TSA made in situ by Gcl from 0-10 mM glyoxylate (concentration varied was glyoxylate, so apparent), 0.2 mM NADH, 20 mM MOPS, 37 °C, no Hyi
[6] = biological target: the molecule itself; assay: AUC; analytical ultracentrifugation, sedimentation velocity (AUC-SV), of each purified protein alone

Molecule: Hyi (PA1501), putative hydroxypyruvate isomerase from Pseudomonas aeruginosa (enzyme)
- stoichiometry N [1]: 2

Molecule: Cc1cc2nc3c(=O)[nH]c(=O)nc-3n(C[C@H](O)[C@H](O)[C@H](O)COP(=O)(O)OP(=O)(O)OC[C@H]3O[C@@H](n4cnc5c(N)ncnc54)[C@H](O)[C@@H]3O)c2cc1C [flavin adenine dinucleotide]
- GlxR-coupled NADH oxidation with added FAD; yellow protein (445 nm) (Gcl [2]): FAD supplementation roughly doubled the enzyme activity

Molecule: O=CC(=O)O [glyoxylate]
- 1H-NMR, decrease of hydrated glyoxylate peak (Gcl [3]): In the presence of Gcl, this hydrated glyoxylate peak slowly diminished in intensity

Molecule: O=C(O)C(=O)CO [hydroxypyruvate]
- 1H-NMR, disappearance of hydroxypyruvate peaks (Hyi): In the presence of Hyi, both hydroxypyruvate peaks had lessened in intensity

B1: GlxR (PA1500), tartronate semialdehyde (TSA) reductase from Pseudomonas aeruginosa (enzyme, P. aeruginosa, UniProt Q9I3L2 1-296, looked up)
chain: MAKIGFIGTGIMGKPMAQNLQKAGHSLFLSTHHDAAPADLLEAGAIALANPKEVAQEAEFIIVMVPDTPQVEDVLFRKDGIAEGAGPNKVVIDMSSISPTATKGFAEKIKATGAQYLDAPVSGGEVGAKAATLSIMVGGCPNTFERALPLFQAMGKNITRVGGNGDGQTAKVANQIIVALNIQAVAEALLFAARNGADPAKVREALMGGFASSRILEVHGERMVKGTFDPGFRISLHQKDLNLALAGARELNLNLPNTANAQQVFSTCAAIGGSNWDHSALIKGLEHMANFSIRDE
notes: GlxR, tartronate semialdehyde reductase, ORF PA1500 of P. aeruginosa strain PAO1; the ORF was tagged and over-expressed; The methods state TEV cleavage of the His6 tag 'For Gcl' but then speak of 'each of the over-expressed proteins'; whether the tag of GlxR was removed is not clear; For crystallisation the elution and dialysis buffers differed (PBS based); also called apo-GlxR; GlxRα; source: E. …
- K0.5 (purified protein [4]): 16.7 mM
- kcat (purified protein [4]): 33.5 s⁻¹
- Km (purified protein [5]): 800 µM
- kcat (purified protein [5]): 34.7 s⁻¹
- stoichiometry N [6]: 4
